# Test results as given in US20240261333A1, “NOVEL TARGETS FOR ENHANCING ANTI-TUMOR IMMUNITY” (THE BROAD INSTITUTE, INC., priority 2021, published 2024).
# Key:
# [1] = target: HUWE1 (human) (UniProt Q7Z6Z7); assay: co-IP, anti-FLAG, lysate of cells with N-FLAG B3GNT2; mass spectrometry
# [2] = target: T1, MOV10 (human) (UniProt Q9HCE1); assay: as above
# T1 sequence (looked up): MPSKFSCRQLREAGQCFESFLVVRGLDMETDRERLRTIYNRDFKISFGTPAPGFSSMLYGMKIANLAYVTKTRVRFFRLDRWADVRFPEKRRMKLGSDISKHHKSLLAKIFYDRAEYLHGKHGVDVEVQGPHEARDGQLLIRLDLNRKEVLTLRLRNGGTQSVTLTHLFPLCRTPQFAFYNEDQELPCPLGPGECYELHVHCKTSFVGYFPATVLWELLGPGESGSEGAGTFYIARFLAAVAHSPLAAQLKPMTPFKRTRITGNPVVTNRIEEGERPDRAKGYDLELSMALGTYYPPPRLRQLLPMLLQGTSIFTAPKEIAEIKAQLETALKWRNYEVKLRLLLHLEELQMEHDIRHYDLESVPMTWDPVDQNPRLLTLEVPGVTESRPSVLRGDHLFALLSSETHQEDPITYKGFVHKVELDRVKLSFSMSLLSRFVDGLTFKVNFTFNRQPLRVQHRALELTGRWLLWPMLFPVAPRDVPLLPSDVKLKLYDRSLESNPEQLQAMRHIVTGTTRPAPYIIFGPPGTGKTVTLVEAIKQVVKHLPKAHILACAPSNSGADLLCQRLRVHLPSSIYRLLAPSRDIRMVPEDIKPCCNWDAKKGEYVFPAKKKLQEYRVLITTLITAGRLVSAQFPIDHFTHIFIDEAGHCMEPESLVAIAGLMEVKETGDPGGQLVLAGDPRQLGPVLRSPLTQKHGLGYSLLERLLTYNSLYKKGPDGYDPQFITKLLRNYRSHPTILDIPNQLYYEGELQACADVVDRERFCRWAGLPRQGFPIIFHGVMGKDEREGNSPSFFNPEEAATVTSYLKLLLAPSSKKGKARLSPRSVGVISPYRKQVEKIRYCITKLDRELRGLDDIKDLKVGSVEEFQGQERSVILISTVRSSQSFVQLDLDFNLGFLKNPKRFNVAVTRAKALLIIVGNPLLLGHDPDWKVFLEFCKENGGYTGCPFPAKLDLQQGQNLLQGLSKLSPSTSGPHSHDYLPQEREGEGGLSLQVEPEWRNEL
# [3] = target: CAT (human) (UniProt P04040); assay: as above
# Sequence of CAT (human) (P04040 2-527 limits assumed): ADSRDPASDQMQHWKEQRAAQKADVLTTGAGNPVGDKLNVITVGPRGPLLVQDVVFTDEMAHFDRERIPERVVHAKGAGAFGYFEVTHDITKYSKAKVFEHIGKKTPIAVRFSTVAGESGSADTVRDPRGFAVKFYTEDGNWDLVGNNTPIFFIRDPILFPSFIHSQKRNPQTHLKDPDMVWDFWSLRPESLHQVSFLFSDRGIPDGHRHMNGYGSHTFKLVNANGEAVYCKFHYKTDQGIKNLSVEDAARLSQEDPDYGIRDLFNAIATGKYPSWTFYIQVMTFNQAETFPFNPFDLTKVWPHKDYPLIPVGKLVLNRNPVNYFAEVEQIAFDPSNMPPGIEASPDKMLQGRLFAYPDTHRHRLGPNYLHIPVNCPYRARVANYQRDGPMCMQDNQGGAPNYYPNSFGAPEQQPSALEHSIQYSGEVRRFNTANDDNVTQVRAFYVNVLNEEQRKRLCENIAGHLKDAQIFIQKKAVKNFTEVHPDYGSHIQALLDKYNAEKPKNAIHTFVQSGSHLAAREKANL
# [4] = target: HSPA8 (human) (UniProt P11142); assay: as above
# Sequence of HSPA8 (human) (P11142 2-646 limits assumed): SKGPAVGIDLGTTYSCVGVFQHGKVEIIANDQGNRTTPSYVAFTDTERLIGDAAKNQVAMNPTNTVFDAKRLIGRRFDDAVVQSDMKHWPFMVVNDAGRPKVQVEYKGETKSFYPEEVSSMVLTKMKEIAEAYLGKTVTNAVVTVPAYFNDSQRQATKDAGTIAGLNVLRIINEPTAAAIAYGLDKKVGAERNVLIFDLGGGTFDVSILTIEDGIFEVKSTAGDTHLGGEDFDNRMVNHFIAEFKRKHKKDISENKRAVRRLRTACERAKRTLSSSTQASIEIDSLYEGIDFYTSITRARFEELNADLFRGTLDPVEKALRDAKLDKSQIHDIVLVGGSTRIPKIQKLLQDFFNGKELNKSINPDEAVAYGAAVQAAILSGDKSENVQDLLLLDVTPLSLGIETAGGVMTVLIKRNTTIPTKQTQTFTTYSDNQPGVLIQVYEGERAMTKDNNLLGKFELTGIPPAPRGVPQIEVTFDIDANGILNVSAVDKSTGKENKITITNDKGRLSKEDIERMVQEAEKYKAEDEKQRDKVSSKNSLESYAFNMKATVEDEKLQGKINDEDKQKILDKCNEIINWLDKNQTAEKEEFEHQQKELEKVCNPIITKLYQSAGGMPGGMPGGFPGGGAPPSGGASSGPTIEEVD
# [5] = target: GGCT (human) (UniProt O75223); assay: as above
# Sequence of GGCT (human) (O75223 whole entry): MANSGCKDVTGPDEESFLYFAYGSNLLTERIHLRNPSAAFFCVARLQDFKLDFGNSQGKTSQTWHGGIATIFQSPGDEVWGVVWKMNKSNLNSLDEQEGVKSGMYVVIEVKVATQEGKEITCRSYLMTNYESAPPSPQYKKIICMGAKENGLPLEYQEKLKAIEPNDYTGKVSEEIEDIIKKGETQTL
# [6] = target: RPL18 (human) (UniProt Q07020); assay: as above
# [7] = target: RPL13 (human) (UniProt P26373); assay: as above
# [8] = target: C1orf68 (human) (UniProt Q5T750); assay: as above
# Sequence of C1orf68 (human) (Q5T750 whole entry): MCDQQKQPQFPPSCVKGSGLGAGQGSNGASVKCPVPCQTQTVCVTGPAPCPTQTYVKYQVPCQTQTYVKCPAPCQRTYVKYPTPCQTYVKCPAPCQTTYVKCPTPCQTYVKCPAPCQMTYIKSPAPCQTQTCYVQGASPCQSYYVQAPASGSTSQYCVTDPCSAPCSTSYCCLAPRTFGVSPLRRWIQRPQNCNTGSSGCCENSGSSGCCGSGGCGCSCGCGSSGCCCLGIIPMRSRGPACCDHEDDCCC
# [9] = target: SAMM50 (human) (UniProt Q9Y512); assay: as above
# Sequence of SAMM50 (human) (Q9Y512 whole entry): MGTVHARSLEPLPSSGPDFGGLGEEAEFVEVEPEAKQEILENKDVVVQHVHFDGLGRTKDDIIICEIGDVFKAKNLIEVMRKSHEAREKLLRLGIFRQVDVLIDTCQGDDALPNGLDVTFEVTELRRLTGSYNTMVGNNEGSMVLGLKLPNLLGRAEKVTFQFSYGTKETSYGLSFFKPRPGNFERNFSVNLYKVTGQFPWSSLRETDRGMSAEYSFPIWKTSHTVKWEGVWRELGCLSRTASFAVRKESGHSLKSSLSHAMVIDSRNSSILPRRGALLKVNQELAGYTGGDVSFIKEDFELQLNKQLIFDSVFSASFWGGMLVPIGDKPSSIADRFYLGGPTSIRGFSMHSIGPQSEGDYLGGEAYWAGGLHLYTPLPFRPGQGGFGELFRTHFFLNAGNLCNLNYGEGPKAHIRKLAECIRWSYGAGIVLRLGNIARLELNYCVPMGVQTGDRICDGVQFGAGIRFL
# [10] = target: KCTD5 (human) (UniProt Q9NXV2); assay: co-IP with anti-FLAG, C-FLAG B3GNT2, mass spectrometry
# Sequence of KCTD5 (human) (Q9NXV2 2-234 limits assumed): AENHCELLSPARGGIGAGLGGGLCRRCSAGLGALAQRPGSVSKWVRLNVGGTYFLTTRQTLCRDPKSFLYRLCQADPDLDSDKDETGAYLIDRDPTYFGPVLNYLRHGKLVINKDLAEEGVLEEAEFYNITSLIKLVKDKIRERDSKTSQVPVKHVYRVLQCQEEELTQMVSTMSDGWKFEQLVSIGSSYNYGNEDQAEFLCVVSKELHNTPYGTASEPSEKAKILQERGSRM
# [11] = target: RPL7A (human) (UniProt P62424); assay: as above
# [12] = target: TM9SF1 (human) (UniProt O15321); assay: as above
# Sequence of TM9SF1 (human) (O15321 other isoform, or with tags, fused parts or gaps limits assumed): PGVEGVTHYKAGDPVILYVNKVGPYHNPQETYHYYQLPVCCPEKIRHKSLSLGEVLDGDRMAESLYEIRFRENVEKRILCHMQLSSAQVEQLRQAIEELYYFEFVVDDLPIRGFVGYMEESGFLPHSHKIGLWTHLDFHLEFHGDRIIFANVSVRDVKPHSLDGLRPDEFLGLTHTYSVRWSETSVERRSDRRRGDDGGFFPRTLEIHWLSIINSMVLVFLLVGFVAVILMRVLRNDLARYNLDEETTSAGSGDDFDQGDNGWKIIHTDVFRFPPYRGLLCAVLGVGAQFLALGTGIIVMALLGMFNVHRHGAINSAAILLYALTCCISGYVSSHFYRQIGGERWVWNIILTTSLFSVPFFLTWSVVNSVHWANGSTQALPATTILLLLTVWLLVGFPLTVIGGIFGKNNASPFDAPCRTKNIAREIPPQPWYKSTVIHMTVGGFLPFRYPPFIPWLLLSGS
# [13] = target: RPL28 (human) (UniProt P46779); assay: as above
# [14] = target: NAP1L1 (human) (UniProt P55209); assay: as above
# Sequence of NAP1L1 (human) (P55209 2-388 limits assumed): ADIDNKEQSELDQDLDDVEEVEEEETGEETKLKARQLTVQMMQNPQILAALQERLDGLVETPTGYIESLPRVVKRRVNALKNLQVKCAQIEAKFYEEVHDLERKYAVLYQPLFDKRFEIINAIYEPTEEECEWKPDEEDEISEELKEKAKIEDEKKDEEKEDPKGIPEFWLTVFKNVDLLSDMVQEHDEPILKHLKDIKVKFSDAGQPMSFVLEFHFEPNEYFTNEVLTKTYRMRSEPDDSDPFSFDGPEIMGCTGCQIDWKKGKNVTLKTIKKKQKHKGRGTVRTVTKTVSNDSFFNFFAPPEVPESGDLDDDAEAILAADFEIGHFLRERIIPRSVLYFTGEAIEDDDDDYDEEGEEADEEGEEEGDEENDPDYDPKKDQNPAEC
# [15] = target: EIF3A (human) (UniProt Q14152); assay: as above
# [16] = target: LAMC1 (human) (UniProt P11047); assay: as above
# [17] = target: IL13RA2 (human) (UniProt Q14627); assay: as above
# Sequence of IL13RA2 (human) (Q14627 27-380 limits assumed): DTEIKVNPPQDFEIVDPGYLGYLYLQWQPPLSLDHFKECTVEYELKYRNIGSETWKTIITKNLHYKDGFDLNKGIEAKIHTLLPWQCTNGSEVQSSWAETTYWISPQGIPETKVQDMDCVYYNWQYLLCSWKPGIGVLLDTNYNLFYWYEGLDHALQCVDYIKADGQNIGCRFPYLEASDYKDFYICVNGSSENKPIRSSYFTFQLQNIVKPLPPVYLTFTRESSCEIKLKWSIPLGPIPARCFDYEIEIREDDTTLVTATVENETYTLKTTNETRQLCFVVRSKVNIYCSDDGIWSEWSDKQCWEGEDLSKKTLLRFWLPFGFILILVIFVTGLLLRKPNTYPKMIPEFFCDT
# [18] = target: LCN1 (human) (UniProt P31025); assay: as above
# [19] = target: RPLPO (human) (UniProt P05388); assay: co-IP/MS, anti-FLAG IP of C-FLAG B3GNT2 cell lysate
# [20] = target: RPL24 (human) (UniProt P83731); assay: as above
# [21] = target: RPS9 (human) (UniProt P46781); assay: as above
# [22] = target: RPL30 (human) (UniProt P62888); assay: as above
# [23] = target: PDIA6 (human) (UniProt Q15084); assay: as above
# Sequence of PDIA6 (human) (Q15084 20-440 limits assumed): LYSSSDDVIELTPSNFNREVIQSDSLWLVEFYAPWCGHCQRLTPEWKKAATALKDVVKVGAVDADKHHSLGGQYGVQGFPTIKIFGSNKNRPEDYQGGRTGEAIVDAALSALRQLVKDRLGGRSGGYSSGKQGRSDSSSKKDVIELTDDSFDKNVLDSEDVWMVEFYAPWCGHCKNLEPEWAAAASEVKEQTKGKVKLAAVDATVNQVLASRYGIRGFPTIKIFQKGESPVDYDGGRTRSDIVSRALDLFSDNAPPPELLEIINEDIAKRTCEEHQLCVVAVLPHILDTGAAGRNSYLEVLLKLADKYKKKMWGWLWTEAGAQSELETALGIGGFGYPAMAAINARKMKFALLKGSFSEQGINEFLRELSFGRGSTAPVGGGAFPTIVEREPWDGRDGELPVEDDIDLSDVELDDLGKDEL
# [24] = target: PRDX1 (human) (UniProt Q06830); assay: as above
# Sequence of PRDX1 (human) (Q06830 2-199 limits assumed): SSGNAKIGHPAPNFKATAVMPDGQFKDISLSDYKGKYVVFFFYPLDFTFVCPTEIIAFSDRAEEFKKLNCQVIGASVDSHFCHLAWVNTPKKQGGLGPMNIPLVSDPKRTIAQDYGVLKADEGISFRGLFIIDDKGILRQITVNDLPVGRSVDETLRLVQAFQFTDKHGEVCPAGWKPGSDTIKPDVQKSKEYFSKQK
# [25] = target: RPL23A (human) (UniProt P62750); assay: as above
# [26] = target: RPL12 (human) (UniProt P30050); assay: as above
# [27] = target: CANX (human) (UniProt P27824); assay: as above
# Sequence of CANX (human) (P27824 21-592 limits assumed): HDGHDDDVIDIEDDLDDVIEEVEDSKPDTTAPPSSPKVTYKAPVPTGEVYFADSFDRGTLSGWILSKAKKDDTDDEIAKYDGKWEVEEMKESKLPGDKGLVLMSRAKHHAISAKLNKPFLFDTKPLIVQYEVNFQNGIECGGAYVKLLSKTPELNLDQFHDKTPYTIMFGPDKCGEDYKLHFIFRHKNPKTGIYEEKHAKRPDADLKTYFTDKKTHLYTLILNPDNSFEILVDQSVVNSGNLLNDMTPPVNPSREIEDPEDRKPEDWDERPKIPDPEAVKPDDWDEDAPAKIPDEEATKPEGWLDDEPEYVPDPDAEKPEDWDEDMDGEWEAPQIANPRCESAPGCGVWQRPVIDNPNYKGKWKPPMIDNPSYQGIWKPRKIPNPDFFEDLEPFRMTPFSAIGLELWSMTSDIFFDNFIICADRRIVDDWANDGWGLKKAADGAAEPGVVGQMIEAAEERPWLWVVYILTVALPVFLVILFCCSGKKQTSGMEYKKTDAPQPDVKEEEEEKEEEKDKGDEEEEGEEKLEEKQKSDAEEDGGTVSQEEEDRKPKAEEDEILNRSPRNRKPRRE
substance,measurement,setting,value
N-terminal FLAG tagged B3GNT2 (from UniProt Q9NY97 1-397) (enzyme),co-IP mass spectrometry count,[1],3
same,co-IP mass spectrometry count,[2],4
same,co-IP mass spectrometry count,[3],6
same,co-IP mass spectrometry count,[4],41
same,co-IP mass spectrometry count,[5],3
same,co-IP mass spectrometry count,[6],11
same,co-IP mass spectrometry count,[7],15
same,co-IP mass spectrometry count,[8],13
same,co-IP mass spectrometry count,[9],3
C-terminal FLAG tagged B3GNT2 (from UniProt Q9NY97 1-397) (enzyme),co-IP mass spectrometry count,[10],3
same,"co-IP/MS count, C-term flag",[11],22
same,"co-IP/MS count, C-term flag",[12],4
same,co-IP mass spectrometry count,[13],16
same,"co-IP/MS count, C-term flag",[14],4
same,co-IP mass spectrometry count,[15],3
same,"co-IP/MS count, C-term flag",[16],4
same,co-IP mass spectrometry count,[17],2
same,co-IP mass spectrometry count,[18],11
same,co-IP mass spectrometry count,[19],10
same,co-IP mass spectrometry count,[20],14
same,co-IP mass spectrometry count,[21],6
same,co-IP mass spectrometry count,[22],14
same,co-IP mass spectrometry count,[23],14
same,co-IP mass spectrometry count,[24],6
same,co-IP mass spectrometry count,[25],10
same,co-IP mass spectrometry count,[26],11
same,co-IP mass spectrometry count,[27],11
